Experimental data reported in US8153413B2, “High alkaline protease and use thereof” (Japan Agency for Marine-Earth Science and Technology, priority 2004, dated 2012).

How the values were obtained:
invention enzyme = assay: Hydrolysis of natural proteins relative to casein; format: biochemical, Alkaliphillus transvaalensis
[1] = Thermostability, residual activity after heat treatment by casein method; format: physicochemical; conditions: for influence of Ca2+ / calcium chloride on thermostability: calcium chloride 5 mmol/L
Procedure: The invention enzyme was added to 50 mmol/L borate buffer (pH 10.0), and heat treatment was conducted at each temperature of from 30 to 75° C. for 10 minutes. The residual activity was measured by the casein method. The residual activity after the heat treatment is shown in FIG. 2B in which activity before the heat treatment is defined as 100%.

acidic insulin B-chain = assay: Cleavage of acidic insulin B-chain (LC/MS/MS); format: biochemical; conditions: 30° C.
Procedure: 3 ng of alkaline protease ALTP was added to a solution obtained by adding 0.1 mg of insulin B-chain to 100 μl of 0.1 mol/L Tris-hydrochloride buffer (pH 8.0), and a reaction was conducted at 30° C. for from 1 to 5 minutes. 5 μl of the solution was collected after 1 minute, 2 minutes and 5 minutes from the start-up of the reaction, and the reaction was terminated by addition of 50 μl of a 2% (v/v) acetonitrile/0.1% trifluoroacetic acid solution (pH 2.2). The reaction solutions were analyzed by liquid chromatograph/tandem mass analyzer (LC/MS/MS). A mixture of fragmental peptides digested with alkaline protease ALTP of the invention was separated and concentrated by capillary HPLC, and ionized to obtain MS and MS/MS spectra. The MS/MS data of the peptides was subjected to Turbo Sequest search to identify the digested acidic insulin B-chain fragments and determine the cleavage sites. Because of the search with the MS/MS data, the highly reliable identification results were obtained.
A reaction was conducted at 30° C. for 24 hours under the same conditions as in (i) by changing the concentration of alkaline protease ALTP to 300 ng. After the termination of the reaction, the acidic insulin B-chain fragment digested with alkaline protease ALTP was identified by the foregoing method to determine cleavage sites. […]

casein [2] = assay: Optimum temperature, casein method; format: biochemical; conditions: for influence of Ca2+ / calcium chloride on optimum temperature: calcium chloride 5 mmol/L
Procedure: 0.1 ml of the invention enzyme solution was added to 1 ml of 50 mmol/L borate buffer (pH 10.0) containing 0.5% (w/v) casein as a substrate, and a reaction was conducted at a temperature of from 30 to 85° C. for 15 minutes. Activity was measured by the casein method. Relative activity at each temperature is shown in FIG. 2A in which activity in the absence of calcium chloride at 50° C. is defined as 100%. “●” indicates relative activity in the absence of calcium chloride, and “∘” relative activity in the presence of calcium chloride.

casein [3] = assay: Optimum pH / active pH, casein method; format: biochemical; conditions: 1% (w/v) casein, 40° C., 15 minutes, highest activity in 50 mmol/L potassium chloride/sodium hydroxide buffer
Procedure: 1 ml of each 50 mmol/L buffer containing 1% (w/v) casein (Hammerstein, Merck) was warmed at 40° C. for 5 minutes, and 0.1 ml of the enzyme solution was then added. A reaction was conducted for from 15 to 20 minutes. Subsequently, 2 ml of a trichloroacetic acid solution (TCA solution: 0.11 mol/L trichloroacetic acid, 0.22 mol/L sodium acetate and 0.33 mol/L acetic acid) was added to terminate the reaction. The reaction solution was allowed to stand at room temperature for 10 minutes, and the acid-modified protein was filtered (No. 2 filter paper, manufactured by Watman). 2.5 ml of an alkaline copper reagent [1% (w/v) potassium sodium tartrate: 1% (w/v) copper sulfate: 2% (w/v) sodium carbonate/0.1 mol/L sodium hydroxide=1:1:100] was added to 0.5 ml of the filtrate, and the mixture was warmed at 30° C. for 10 minutes. Thereafter, 0.25 ml of a dilute phenol reagent [phenol reagent (manufactured by Kanto Kagaku) diluted twofold with deionized water] was added, and the mixture was warmed at 30° C. for 30 minutes. Absorbance at 660 nm was measured with a spectrophotometer to obtain an amount of an acid-soluble protein hydrolyzate. By the way, a system obtained by mixing the enzyme reaction system with a reaction terminator and adding the enzyme solution thereto was used as a blank.
Herein, one unit (PU) of the enzyme referred to an amount of an enzyme in which to liberate the acid-soluble protein hydrolyzate corresponding to 1 μmol of tyrosine for 1 minute under the foregoing reaction conditions.
The invention enzyme was reacted at 40° C. for 15 minutes in various buffers of pH 3.5 to 12.6 containing 1% (w/v) casein as a substrate, and the enzymatic activity at each pH was measured. The results thereof are shown in FIG. 1A in terms of relative activity when the highest activity was defined as 100%.
Acetate buffer ( ? ): pH 3.5 to 6.0, phosphate buffer (▪): pH 6.5 to 8.1, carbonate buffer (◯): pH 9.0 to 11.0, phosphate/sodium hydroxide buffer (●): pH 11.0 to 12.2, and potassium chloride/sodium hydroxide buffer (▴): pH 11.5 to 12.6.

[4] = listed as novel alkaline protease

Molecule | hydrolytic activity, casein defined as 100% (invention enzyme) | influence of Ca2+ / calcium chloride on thermostability [1] | influence of Ca2+ / calcium chloride on thermostability ([1]; listed as invention enzyme) | influence of Ca2+ / calcium chloride on thermostability [1, 4] | temperature up to which stable without activity drop by heating ([1]; pH 10 for 10 minutes) | bond cleaved first / at the initial stage (acidic insulin B-chain; 3 ng ALTP, within 5 minutes) | peptide bonds of 29 peptide bonds cleaved (acidic insulin B-chain; 300 ng ALTP, within 24 hours) | optimum temperature (casein [2]; borate buffer pH 10.0, casein, 15 minutes) | influence of Ca2+ / calcium chloride on optimum temperature (casein [2]) | influence of Ca2+ / calcium chloride on optimum temperature (casein [2]; listed as invention enzyme) | influence of Ca2+ / calcium chloride on optimum temperature (casein [2]; [4]) | optimum pH (casein [3]) | optimum pH (casein [3]; listed as invention enzyme) | optimum pH (casein [3]; [4])
hemoglobin | approximately 73% | – | – | – | – | – | – | – | – | – | – | – | – | –
alkaline protease ALTP: purified high alkaline protease from Alkaliphillus transvaalensis, mature enzyme amino acid sequence SEQ ID NO: 3 (protein, listed as Alkaliphillus transvaalensis) AQSTPWGVTRVQAPNVWNRGFTGSGVRVAVLDTGIHSSHEDLTVSGGYSVFGDSPYNDVQGHGTHVAGTIAARNNSVGVIGVAYNAQLYAVKVLNNQGSGTLAGIAQGIEWARQNNMHVINMSLGGTSGSTTLQNAVNAAYNAGILVVAAAGNSGNSAGTGDNVGFPARYPNAMAVAATTSGNVRASFSSTGPAVEIAAPGQDINSTYPTNTYRSLNGTSMAAPHVAGVAALLKSARPAVTAAGIRNAMNSTALNLGNSNWYGNGLVRANNALDMVLSY | – | No improvement | unchanged | still unchanged | up to 65 °C | Leu-Tyr | 26 | 70 °C | little influenced | unchanged | still unchanged | 12.6 | approximately 12.6 | approximately 12.6
